Target: T1, soluble recombinant DSG2 (Homo sapiens, UniProt Q14126)
T1 construct: purchased Leinco Technologies, Inc. (St. Louis, Mo.)
T1 sequence (Q14126 50-609 limits assumed): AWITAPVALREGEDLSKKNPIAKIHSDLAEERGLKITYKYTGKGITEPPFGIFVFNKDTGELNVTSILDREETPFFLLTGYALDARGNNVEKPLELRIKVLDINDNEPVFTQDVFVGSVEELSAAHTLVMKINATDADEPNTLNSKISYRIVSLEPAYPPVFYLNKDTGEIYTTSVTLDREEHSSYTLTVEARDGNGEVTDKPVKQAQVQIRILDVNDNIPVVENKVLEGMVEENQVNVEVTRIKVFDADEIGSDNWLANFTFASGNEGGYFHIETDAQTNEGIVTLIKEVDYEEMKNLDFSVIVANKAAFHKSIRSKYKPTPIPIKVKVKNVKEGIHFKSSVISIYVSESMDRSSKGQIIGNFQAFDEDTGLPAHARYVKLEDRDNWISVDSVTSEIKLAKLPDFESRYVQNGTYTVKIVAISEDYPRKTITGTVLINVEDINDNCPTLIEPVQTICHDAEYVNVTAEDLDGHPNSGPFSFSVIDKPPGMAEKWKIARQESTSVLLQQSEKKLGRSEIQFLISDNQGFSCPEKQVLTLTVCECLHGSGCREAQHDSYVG
Test: Western blot of dimeric Ad3 fiber knob mutants probed with soluble DSG2
Type: binding
Conditions: purified dimerized knob mutants
Text: FIG. 1. Residues found to be critically involved in binding to DSG2. A) Shown are the amino acid sequences of the Ad3 and Ad14p1 fiber knob. Beta sheets present in the Ad3 knob (PDB accession number 1H7Z_A) and Ad14 knob (PDB: 3F0Y_A) are indicated by lines. Black arrows indicate residues within the Ad3 fiber knob which, when mutated individually, ablate or reduce binding to DSG2. […] B) Schematic structure of dimeric Ad3 fiber knob mutants. The fiber knob domain and one shaft motif was fused through a flexible linker to a homodimerizing K-coil domain (41). The proteins are self-dimerizing and can be purified by His-Ni-NTA affinity chromatography. C-F) Analysis of binding of dimeric Ad3 fiber knob mutants to soluble DSG2. C and D) Coomassie staining. 10 μg of purified Ad3 fiber knob (unboiled) were loaded per lane. Trimeric forms of the fiber knobs are indicated by an arrow. The gel contained SDS and the loading buffer containing DTT, which caused the disassembly of dimers of trimeric fiber knobs as previously reported (41). E and F): Western blot using soluble recombinant DSG2 as a probe, followed by anti-DSG2-mAb and anti-mouse IgG-HRP. For comparison, JO-1 (0.5 μg/lane) is shown. The Western blots were scanned and signals were quantified.
Mini-PROTEAN precast gels (BIO-RAD, Hercules, Calif.) with 4-15% gradient polyacrylamide were used. A total of […] protein mixed with 2× loading buffer (10 mM Tris-HCl, pH6.8, 200 mM DTT, 4% SDS, 20% glycerol, 0.2% bromophenol blue) was loaded per lane. Samples were either boiled (B) for 5 min or loaded unboiled (UB). The following running buffer was used: 25 mM Tris, pH8.3, 0.192 M glycine, 0.1% SDS. After electrophoresis, proteins were transferred to nitrocellulose and incubated with recombinant human DSG2 protein and anti-DSG2 antibodies as described previously (42). The Western blots were scanned and quantified using the ImageJ 1.32 software (National Institutes of Health, Bethesda, Md.). JO-1 band intensity was set as 100%. […]

B1: D261N (protein)
chain: MKVSALKEKVSALKEKVSALKEKVSALKEKVSALKEGSGGGSGGGSGGGSNSIALKNNTLWTGPKPEANCIIEYGKQNPDSKLTLILVKNGGIVNGYVTLMGASDYVNTLFKNKNVSINVELYFDATGHILPDSSSLKTDLELKYKQTADFSARGFMPSTTAYPFVLPNAGTHNENYIFGQCYYKASNGALFPLEVTVMLNKRLPDSRTSYVMTFLWSLNAGLAPETTQATLITSPFTFSYIREDD
- DSG2 binding in Western blot compared to JO-1: almost completely ablated for DSG2 binding
